# Test: soluble fraction after stress (log2 fold change); higher = more stays soluble; pooled small domains, quantitative proteomics
# Details: stress: 75 degC
# 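Note: 20 min heating vs room temperature control held 20 min.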
row,Sequence,soluble fraction (log2)
1,HMKRSFGSVRQLRSGNYQARYTGPDTVRHTSPVTYTSKMDAEAWLVDERRKISSGTWTPPAR,-0.193
2,HMKRSVIVTAERAEVRQKADEGSALVFEAEKNVSLEYLEAAPGGWVKVRHLDGQSGFVRGNQI,-0.309
3,HMKRTKLEEATEWLRDRLSDGVKYNGEELLREGESADMARRTLRRAAQELGVIIERERGARGRWFWSLP,-0.897
4,HMKRTLLLEGRTIPYELTQKPVKNINIRVHADGSVRVSAGPWVSPEAVDAVLRQRSAFLLRALDQFAAQAP,-1.91
5,HMKRVPFAFAGDMLRWAAWLYHVEKRTQNEIAEELEVSRQTVANYLSEAMSQGLVQVQLRSDIIE,-1.98
6,HMKSAIGEEKAENFAFADLGMDPLSAEGVRTEFGFEQGQFVYKVYFTADGTEYEYWIKASDGSVVKKGMDL,-1.53
7,HMKSAIKQNILLYLSNKGVTSYEFYKISGVTRGILQQSNGISEDNIAKFLAYAPDVNIEWLLTGKGDMLKH,-1.41
8,HMKSATGKIPDFISDLPVDEFVRELIVTNAFQPLNKFKEVQNHIGSALKIYVDELTEKRANGTVHILYSHK,0.46
9,HMKSAYADVAIAKVQDYVNVRAENNEDSEVLGKLYNNSAATVLETTDDGWYKISSGSVTGYVKSEYVVVG,-0.111
10,HMKSEMYIDLSNALLKMSERDKELLTYRYTMEMSSKEISQITGIKESNVNSYIRRAREKLLKIFNAMNK,-3.73
11,HMKSFDERQAALNELAKVIEGTGRKAEQDAEFRREQNQLMIDKIDEQLKGDLTDSQREELKKERAALARK,0.174
12,HMKSGLLNLSTRKQEKIKQALLSEFSNVSLLEAKVANIVTLAEISRGSFYTYFEDIYDAYQWLASI,-0.513
13,HMKSIFIRADELAAELDVSKALAYKMINQWNEELKAKGYTTVGGRVSRQYYYEKIYGAENVFDF,-1.76
14,HMKSILDDVVGLGPVRKKALLSAAGGFRKLRDMDVDEVIGLGAVPEEVAREVVTVLAQYNGERDRVEGL,-0.146
15,HMKSILSEIPGIGPKKRKSLMMQFGSVKNISEASLKDLSSTKGINSNLSKEIFNFFSVEKNN,-0.0299
16,HMKSKNILLGEYKGKEVHVGEGKYGPFILYDKKFKSIGAYLTENSLMLKDLTIEDYSKIMKFTENSNSKS,-0.91
17,HMKSKNRLTKSYLDSIPGVGRKRKSILLRYFGSIDQIKRASSEDIANVPGIGKITSDLVYNYFNQ,-0.811
18,HMKSLAQELVDALGDRIRDGRLKVGDKLPSEAAIEAQYGVSRTVVREAISRLQAAGLVVTRHGIGTFIVGI,-2.45
19,HMKSLLDQINGIGAIRKRALLNHFGSARAVESASLDEIKSVEGVEAKVAKKIYNFFHEYKNMLR,-1.51
20,HMKSLLSRREQEVLELVSRGFSYSEIAELKNLSVHTIQTHIKSLYGKLEVHSKMEAVLEATRMGLLPQ,-2.34
21,HMKSSLAKNLETLMQERQISQTRLSKISGVSQSYIFKILNDQIKKPSLDTLEKLATALDSTVAQLNH,-0.433
22,HMKSSTEIIYSDFLREVSNGQISEVTIQGDFVRGLFLSGSSFQTYAPKDSNLINILRDKKVRIKVHPP,-1.07
23,HMKSTELSIIEALRVLGLKHGASQDSIKKSYRRLVKQHHPDLGGSADSFRKVNEAYQLLIMN,-0.749
24,HMKSVILQLHPETLRWIREEAQADMADASVIQLLNDWELGTKKPTLSQVQKLSHETHIPFGYFFLKEKPA,-0.64

row,Sequence,soluble fraction (log2)
1,HMKSVQIPQSITVKEFSQAIEVSVADVIKKLMSMGVMVSQNKEINVDTAILVGEEFGVTVNVA,0.609
2,HMKSVTVIFKESGNVVSSKKLSVVATAQYVDKSRITAPAGYRIATTDSKLKISENNTVTVEVK,-0.496
3,HMKSYTYNPNYLSDYNAYRLGIPLEALERLQLHRSTGRYVNSLSDFQSVTGISDSLKHSLSSSLRFPN,-1.36
4,HMKTDLQIQQDVMAELKWEPKVNAAHIGVEVKHGVVTLSGHVDSFAEKWNAEQAAKRVAGVKFIAIELDV,-2.1
5,HMKTEIKSPLPGIVLKIFVRTGEYVDKNQRLFSLEAMKMENEIKAERAGVIAGIRISEGQSVLQDEVIMEM,-3.7
6,HMKTFQSYQTTSMSNVNLRKRANGTSTILKRIKVGDTVTVVGKSGNYYQIQFDGKEGYALIKYIDGTDSGA,-1.95
7,HMKTFSTRLIALREAIGVNQSELARRVGVTPQAVQKWESGANGPRGKRLEKLASELRSTVGYLVSGEGDG,-0.434
8,HMKTGAKLKNLRKMKKLSQEEVAKVLNLSYSTLSRWENDTRIPTYEDLFKLGQFYGVSVDYLSDPN,-0.98
9,HMKTGNIITVSLVWKGKYYMIRMFFPSASRPTRSDVQNEIEKVYPGSKLSTFSVSDYEPGQPLLQV,-1.6
10,HMKTGNPYAQRNTADMYNYGRGIEKDSYLAFVWYFAAYKQGNDNAKPQIDSITASGHLSPNQQLHAKIE,-0.243
11,HMKTIQVGSTVRVNQGAKTYSGGGLASFVYKRNHKVSQLQGDRAVITYEGTVVAAVHVSDLSLIH,-0.192
12,HMKTLELIAAIRKRIAGGYAGADGRLPNIGEIAKDFSVSPMTAQKAVRALVEAGVLTSTRRKGVFLKQPAS,-2.09
13,HMKTLGMDKGVNIALNDAGLRAEDVSNLSAHYDTEDGVPVYEIKFTAGGFSYEYQIKASDGTIIEADRDAA,-0.00738
14,HMKTMAVYPVGTRVLTSDGEIGVVEKQNSEAPERPVIKILKGADGHDYEKPDFKDLMKILTLFIVDTI,0.182
15,HMKTMSLSSIEKAIYKTKYENEPTSQRLSRIESSVFGTNFSQDSESERIARISSAINAQKSAK,0.0313
16,HMKTMTTIRKGSRGDTVATLQRKLNLIADGIFGPITDEAVRDFQKSHGLAVDGIVGPKTWAALGVGS,0.00482
17,HMKTNQINVSGLSKEKNFEVLESLDVYKFYNLFFLNKIKIDQLINSYNHIDNYSVFKKYPSSLIVKLSE,0.0213
18,HMKTPETSEYVVQAGDSLRRILTERYGAKEQDLPYLYRQFRLLNPKVSSLDNIHAGTKVRIPLVASVL,-0.135
19,HMKTPRKVFTVLIRNTEYDVYDIDGKEHQGYNDTPKTWWLYHSERLPEGMIPPIDSDSWKPYSVGT,-1.27
20,HMKTTKESLLEYIQREVFTDSIHKEGLSTNEIADAFQIQRSNVSSLLNTLVKEGKLEKTTGRPVLYRIPEK,-0.126
21,HMKVEFDAMDKRILELMAKEYDTVLMARHLPLTPIVIDVRKKRIREVLNLPDATDAEIVIEAKEKDII,-1.08
22,HMKVEIVRVVKDIHIGDEITKDMVRTVEVGGYNLPDGVVKDTATVIGRFASADMVPGDYIISSKIADAP,-0.378
23,HMKVELSENEKIIYDLLSNQEVLLSEIKDKAELSNKAWDKSTKSLRKLGLVIVEKKDDNIYISKS,-0.101
24,HMKVGEIIKAKREELKIPLVNFAKELDISQGYLSQIENGIKTNPNLDIILKIIHRLDIDLAMLL,-1.93

row,Sequence,soluble fraction (log2)
1,HMKVIAEESYRILVDAIEKLPPQMKSIMQLALEGKSNPEIAETLNISGETVHSQKKIAYRKLRVYLKD,-2.36
2,HMKVIETKYNTYVVKSGDTLYSVAKKYGISVTELKEINDLSNNTLSIGQKLLVPATTIIIDE,-0.637
3,HMKVNMIIVMKPGARETDIQEVSNVLKSAGLGVHISKGTERTIIGVIGDKRLLNGIPLDLMHGVDKLVPIM,-1.24
4,HMKVNQFEVEGNQRYSTEEIAKASGVSKGDNLFLVNKTETARKLLDELAYVRSVNIKRKLPDTLVITVAE,-0.032
5,HMKVPDVQYMNKDSAIEALTANELKYTIVEAENENVAAGVVISQSVERDSQVAPGTSVELVVSTG,0.212
6,HMKVQEMTANSFLTQWEAGNVKTLDILPEGIIKGELNDGTKFQLYYSSAAGLIDDVKKNPEKFANTTVSEK,0.0538
7,HMKVQEVDYGTFLTMVDEGKVNQVDIENSKQITFNTKGDKNKVYITGQVNDPELVNRLYKAGVEFSQEIP,0.273
8,HMKVSNWYFNGAPSATTPPTSQWTTEKDKKAHIGDTFTSLDKSPSPNAGKSWRYTPSYTWEEIV,0.655
9,HMKVSRTAVKLHHANAVEVAKKLQPLFVVGDVQIEPVKDAGIILLKGPASTLADLRESIVQMDHTA,-0.188
10,HMKVTRWEDTGMKPAEAQEWQHYDFKPQEAMNWRDAGFVPLVARTWSDKGFDASEAQAWRDSVRNS,-0.618
11,HMKVVEKHIVPQIQNPIRLQEYASSIFKTITTRSGIKKAIKKQLILLNRKPANTGDWIKEGQLLELLAEE,-2.53
12,HMKVYIKDISDLSDKLKSLLIENDIDDSNKLFEVEDQVLLEIKGLGSKTIDKIKDIVTEYLKKNN,-0.266
13,HMKVYPIMEAIANNNIELVKLLLEYHADLNIKDSNGNTPLALAKETGAKEVEDLLLQWMKQHT,-1.06
14,HMKWGDTPTVEVPNLIGMKKKDLQTQLVDLKLDISGDGEKVIKQSPEAGAKVKEGSKIRIYFG,-0.332
15,HMKWYDSDKGFGFLSQEEGEDVYVRSSALPAGVEGLKAGQRVEFGIASGRRGPQALSL,-0.31
16,HMKYKKYKLLKDLPTFKAGQLAYISKTGNLIAGTPENQKTTETGLIIMIYHETTLKKFPNILTEWFEEIE,-3.3
17,HMKYNGDRPVFNDDVAWAKWMLENPAKITSHDKENLSSMLKKPEVVMLFEAEDLSVPDLRTLAKE,≥ 1.04
18,HMKYNYEAQQSDELSLVKGSRIHVLEKSSDGWWKGEIDNVVGWFPS,-0.239
19,HMKYRLLGENLQTIRKARGMKQQELADQIGINMQSLSKIERGLNYPTFETLEKIMNALGITPNELLSG,-0.82
20,HMKYRPGDVVTLRVARMGEMGAFLDAGTGNTNDDILLHKMQQTEEIKAGQDVKVYLYLDPNRRLTASMKL,-0.835
21,HMKYSNDEVERDLYVRGVIYQIGDLVENKLDGTSGEVVRRGPNYVQYTDGENFYKAFLSALQEQK,-0.369
22,HMKYSYAELTKLQEQIAQDRNAPLTVPNALGIGLDERNNVIEITVNIADEAAAKAYYLQKYGDRISLKTTD,-0.317
